Measurements from patent publication US20260234660A1 (Regeneron, published 2026).

B1: REGN14570-M3004 (antibody, V domains shown)
VH: QVQLQQWGAGLLKPSATLSRTCAVYGGSFSGYYWNWIRQSPGKGLEWIGEILHSGRTNYNPSLKSRVTISVDTSKNQFSLKLTSVTAADTAVYYCAGRIAARHGWFDPWGQGTLVTVSS
VL: DIQMTQSPSSVSTSVGDRVTISCRASQDIRKWLAWYQQKPGKAPKLLIYATSSLQSGVPSRFSGSGSGTDFTLTISSLQPEDFATYFCQQANSFPFTFGQGTKLEIKR
B2: REGN14572-M3004 (antibody, V domains shown)
VH: QVQLVESGGGVVQPGRSLRLSCAASGFTFSTYGMHWVRQAPGKGLEWVAVIWHDGSDKYYVDSVKGRFSIARDNSKNTLYLQMNSLRVEDTGIYYCARRGIRGTVFDHWGLGTLVTVSS
VL: DIQMTQSPSTLSASVGDRVTLTCRASQSISNKLAWYQQKPGKAPNLLIYKASNLESGVPSRFSGSGSGTEFTLTISSLQPDDFATYYCQQYNSYSWTFGQGTKVEIKR
B3: REGN14573-M3004 (antibody, V domains shown)
VH: EVQLVESGGNLVQPGGSLRLSCAASGFTFTSHAMNWVRQAPGKGLEWVSVITGRGFDTHYADSVKGRFTISRDISKNTLYLQMNSLRAEDTAVYYCAKGLYDSGNYYIDYWGQGTLVTVSS
VL: QSVLTQPPSVSAAPGQKVTISCSGSSSNIGNNYVSWYQQLPGTAPKLLIYDNNKRPSGIPDRFSGSKSGTSATLGITGLQTGDEADYYCGTWDLSLSFNWVFGGGTKLTVLG
modifications: N180Q in the constant region; linker-payload M3004 (VC-PAB linker, DHT), DAR ~4
B4: REGN14647-M3004 (antibody, V domains shown)
VH: QVQLVESGGGVVQPGRSLRLSCTASGITFRNYGMHWVRQAPGKGLEWVAVMWYDGSNKYYADSVKGRFTISGDNSKVYLQMNSLRAEDTAVYYCARRGTIRTAAPFDYWGQGTLVTVSS
VL: not shown
modifications: N180Q in the constant region; linker-payload M3004 (VC-PAB linker, DHT), DAR ~4
B5: REGN7660 (antibody, human IgG4 S228P, kappa, V domains shown)
VH: EVQLVESGGGLVQPGGSLKLSCTASGLTLSDSAMHWVRQASGKGLEWVGRIRNKANRYATEYAASVKGRFTISRDDSKNTAYLQMNSLKTEDTAVYYCTRNWKIFLFDYWGQGTLVTVSS
VL: EIVLTQSPGTLTLSPGERATLSCRASQSVGSKYLAWFQQKRGQAPRLLIYGASSRTSGIPDRISGSGSGTDFTLTISRLEPEDFAVYYCQQYGSSPWTFGQGTKVEIKR
notes: also called antibody designation 9
B6: H2aM31941N (antibody, V domains shown)
VH: QVQLVQSGAEVKKPGASVKVSCKASGYAFTTYGITWVRQAPGQGLEWMGWISAYNGNTNYAEKVQGRFTMTTDTSTNTAYMELRSLRSDDTAVYFCARKGHYGSGTYYNPFGFDFWGQGTMVTVSS
VL: EIMLMQSPGTLSLSPGERATLSCRASQSVSSSYLAWYQQKPGQAPRLLIYGASSRATDIPDRFSGSGSGTDFTLTISRLEPEDFAVYFCQQYYGSPWTFGQGTKVEIK
notes: also called antibody designation 8
B7: REGN10716 (antibody, human IgG4 S228P, kappa, V domains shown)
VH: QVQLQESGPGLVKPSETLSLTCTVSGDSINNYYWTWLRQPPGKGLEWIGYIYYSGSANYNPSLKSRVTISVDTSKNQFSLKLNSVTAADTAVYYCARGAVKYFRHWGQGTLVTVSS
VL: EIVLTQSPGTLSLSPGERATLSCRASQTINHNNLAWYQQRPGQAPRLLIYGASNRATAIPDRFSGSGSGTDFTLTISRLEPEDFEVYSCQQYGSLPLTFGGGTKVEIKR
notes: also called antibody designation 4
B8: H2aM31944N (antibody, mouse IgG2a, kappa, V domains shown)
VH: QVQLVESGGGVVQPGRSLRLSCEASGITFRNYGMHWVRQAPGKGLEWVAVMWYDGSNKYYADSVKGRFTISRDNSKNTVYLQMNSLRAEDTAVYYCARRGHIATAAPFDYWGQGTLVTVSS
VL: DIQMTQSPSSLSASVGDRVTISCRASQSISSYLNWYQQKPGKAPKVLMYAASSLQSGVPSRFSGSGSGTDFTLTISSLQPEDFATYYCQQSYSTPPITFGQGTRLEIKR
notes: also called antibody designation 6
B9: REGN10783 (antibody, human IgG4 S228P, kappa, V domains shown)
VH: QVQLVESGGGVVQPGTSLRLSCAASGFTFSSYGMHWVRQAPGKGLEWVAVIWIDGSNKYYADSVKGRFTISRDNSKNTLYLQMNSLRAEDTAVYYCARRGGIVVAAPFDYWGQGTLVTVSS
VL: not shown
notes: also called antibody designation 5
B10: REGN10715 (antibody, human IgG4 S228P, kappa, V domains shown)
VH: B1 VH
VL: B1 VL
notes: also called antibody designation 2
B11: REGN10713 (antibody, human IgG4 S228P, lambda, V domains shown)
VH: B3 VH
VL: B3 VL
notes: also called antibody designation 11
B12: H2aM31929N/REGN10728 (antibody, human IgG4 S228P, kappa, V domains shown)
VH: B4 VH
VL: not shown
notes: also called antibody designation 1
B13: REGN10717 (antibody, human IgG4 S228P, kappa, V domains shown)
VH: B2 VH
VL: B2 VL
notes: also called antibody designation 3
B14: REGN9909 (antibody, mouse IgG2a, kappa, V domains shown)
VH: EVQLLESGGGLVQPGGSLRLSCAASGFTFNNYGMSWVRQGPGKGLEWVSSISGSGGTTFYADSVKGRFTISRDNSKNTLYLQMNSLRAEDTAVYYCGKGGYCSSSGCRHYGMDVWGQGTTVTVSS
VL: QSVLTQPPSASGTPGQRVTISCSGSSSNIGNNYIYWYQRLPGTTPKLLIYRNNQRPSGVPDRFSGSKSGTSASLAISGLRSEDEADYYCAAWDDTLSGYVFGTGTKVTVLR
notes: also called antibody designation 10

biological target: T1, human CACNG1, cell surface-expressed (human, UniProt Q06432 1-222); assay: cell-based or functional assay
T1 sequence (Q06432 whole entry): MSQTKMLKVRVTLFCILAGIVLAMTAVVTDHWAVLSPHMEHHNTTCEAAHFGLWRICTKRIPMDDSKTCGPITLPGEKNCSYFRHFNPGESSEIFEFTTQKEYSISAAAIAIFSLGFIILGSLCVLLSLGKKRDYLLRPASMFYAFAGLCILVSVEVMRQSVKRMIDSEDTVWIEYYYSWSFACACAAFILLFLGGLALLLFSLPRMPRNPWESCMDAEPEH

Row | Binder | EC50; androgen receptor luciferase reporter (RLU), hCACNG1.AR.Luc LNCaP cells, 24 hours [nM]
1 | B1 | 2
2 | B2 | 11.2

biological target: T1, human CACNG1, cell surface-expressed; assay: cell-based or functional assay; remark: another data set of the same source

Row | Binder | EC50; androgen receptor luciferase reporter (RLU), hCACNG1.AR.Luc LNCaP cells, 24 hours [nM]
3 | B3 | 214
4 | B4 | 6.75

biological target: T1, human CACNG1, cell surface-expressed; assay: cell-based or functional assay; remark: another data set of the same source

Row | Binder | EC50; androgen receptor luciferase reporter (RLU), hCACNG1.AR.Luc LNCaP cells, 48 hours [nM]
5 | B1 | 5.83
6 | B2 | 11.9

biological target: T1, human CACNG1, cell surface-expressed; assay: cell-based or functional assay; remark: another data set of the same source

Row | Binder | EC50; androgen receptor luciferase reporter (RLU), hCACNG1.AR.Luc LNCaP cells, 48 hours [nM]
7 | B3 | 213
8 | B4 | 6.04

biological target: T1, human CACNG1, cell surface-expressed; assay: cell-based or functional assay; remark: another data set of the same source

Row | Binder | EC50; androgen receptor luciferase reporter (RLU), hCACNG1.AR.Luc LNCaP cells, 72 hours [nM]
9 | B1 | 6.65
10 | B2 | 10.3

biological target: T1, human CACNG1, cell surface-expressed; assay: cell-based or functional assay; remark: another data set of the same source

Row | Binder | EC50; androgen receptor luciferase reporter (RLU), hCACNG1.AR.Luc LNCaP cells, 72 hours [nM]
11 | B3 | 185
12 | B4 | 7.36

biological target: T2, nanodisc embedded human CACNG1 expressed with a C-terminal PADRE-Flag-His tag (human, UniProt Q06432 1-222); assay: SPR (Biacore T200), 25 C, anti-His-captured human CACNG1 nanodisc, antibody as analyte
T2 construct: Membrane protein (gamma-1 subunit of the skeletal muscle L-type calcium channel) in a nanodisc; also called human CACNG1 nanodisc; CACNG1 nanodisc; not shown: C-terminal PADRE-Flag-His tag
T2 sequence (Q06432 whole entry): as above
Method: Equilibrium dissociation constants (KD values) for nanodisc embedded human CACNG1 expressed with a C-terminal PADRE-Flag-His tag (human CACNG1 nanodisc) binding to purified anti-hCACNG1 antibodies were determined using a real-time surface plasmon resonance biosensor technology with a Biacore T200 instrument. The CM5 Biacore sensor surface was derivatized by amine coupling with a monoclonal mouse anti-His antibody (Cytiva; Marlborough, MA). All Biacore binding studies were performed in a buffer composed of 0.01M HEPES, 0.15M NaCl, 1 mM CaCl₂), 0.5 mM MgCl₂, pH 7.4 (HBS-N++ running buffer). Different concentrations of anti-hCACNG1 antibodies (ranging from 300 nM to 12 nM in 5-fold serial dilutions) prepared in HBS-N++ running buffer were injected over the captured human CACNG1 nanodisc at a flow rate of 30 μL/minute. Antibody association was monitored for 2 minutes while dissociation was monitored in HBS-N++ running buffer for 5 minutes. At the end of each cycle, the human CACNG1 nanodisc capture surface was regenerated using three 10 second injections of 10 mM Gly pH1.5. All binding kinetics experiments were performed at 25° C.

Row | Binder | mAb Bound at 300 nM (RU)
13 | B5 | 23
14 | B6 | 19
15 | B7 | 31
16 | B8 | 16
17 | B9 | 9
18 | B10 | 31
19 | B11 | 53
20 | B12 | 25
21 | B13 | 7
22 | B14 | 22
